In the supplement of paper PMC9170038:

Experiments:
MS2 coat protein [1] = test: apparent KD of MS2 coat protein; designed switch direction (-1 OFF switch, 1 ON switch): 1; higher = weaker reporter binding
How it was run: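 The buffer was Tris-HCl pH 7.5 with KCl, MgCl2, BSA, DTT, tRNA and Tween-20. In it, SNAP-549-labelled MS2 coat protein was titrated in doubling steps from 0.7 or 1.5 nM to 3 µM over chip-bound RNA switches transcribed by stalled E. coli RNA polymerase on Illumina chips. Apparent KD is the per-design median over clusters of curve fits to normalised fluorescence.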

MS2 coat protein [2] = test: apparent KD of MS2 coat protein; higher = weaker reporter binding; conditions: Eterna round: R107
How it was run: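 Designed RNA switches were transcribed on-chip from Illumina sequencing clusters. They were then titrated with SNAP-549-labelled MS2 coat protein (twofold steps, 0.7 or 1.5 nM to 3 µM; 0.8–1.5 h to 10–20 min per step) in 100 mM Tris-HCl pH 7.5, 80 mM KCl, 4 mM MgCl2, without or with constant ligand. Apparent KD is the per-design median of normalised cluster binding-curve fits.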

[3] = input ligand: microRNA oligo, concentration not stated
[4] = Eterna round: R95, input ligand: FMN 200 uM
[5] = Eterna round: R95, input ligand: microRNA oligo, concentration not stated
[6] = Eterna round: R95, input ligand: none
[7] = input ligand: theophylline 20 uM
[8] = input ligand: theophylline 2 mM
[9] = input ligand: tryptophan 2.4 mM

Row | Sequence | apparent KD of MS2 coat protein (MS2 coat protein [1]; input ligand: FMN 200 uM) | apparent KD of MS2 coat protein (MS2 coat protein [1]; [3]) | apparent KD of MS2 coat protein (MS2 coat protein [1]; input ligand: none) | also measured
1 | AAAAAACAUGAGGAUCACCCAUGUGAAAAUAUGGGAGGAUAUACAAACACGAAAGUGAAAGUAGAAGGCCUAAAAA [SS! MT 16] (Eterna round: R96, puzzle: Same State 1) | 17.2 nM | 95.4 nM | 127 nM | 
2 | AAAACAUGACGAGGAUAUGGAACAUGAGGAUCACCCAUGUAUGUUCCAUAACGCGAAUGACGAAUCCAGAAGGCGUCGUGAAAA [Mat - Same State NG 2 - JL mod - D27] (Eterna round: R96, puzzle: Same State NG 2) | 25.1 nM | 181 nM | 272 nM | 
3 | AAAAGAAACACAGGAUAUACCGCAAUUAACACGGUAGAAGGGUGGGACAUGAGGAUCACCCAUGUGACCUGAACACCAGGUCGC [Enrien] (Eterna round: R96, puzzle: Same State NG 1) | 369 nM | 17.9 nM | 105 nM | 
4 | AAAAGAAACAUGUACCUGAGUACAUGAAAACAUGAGGAUCACCCAUGUAAUAAGUGGGUGUUUUGUCUUUGUCUUAU [JL pocket 34, mod 5] (Eterna round: R96, puzzle: Sensor for hsa-mir-208a) | 50.8 nM | 119 nM | 51.8 nM | 
5 | AAAAGAAGAAUGUAGGAUAUACAAAAGAACACAUGAGGAUCACCCAUGUGAGCCUAAUGUAAGAAGUAGAAGGACAAAGAGAAAA [Default title] (puzzle: Same State 2) |  |  |  | apparent KD of MS2 coat protein (MS2 coat protein [1]; [4]): 91.3 nM; apparent KD of MS2 coat protein (MS2 coat protein [1]; [5]): 62 nM; apparent KD of MS2 coat protein (MS2 coat protein [1]; [6]): 67.3 nM
6 | AAAAGACAAAGAAAACAUGAGGAUCACCCAUGUGGCGUGACACAGGAUAUCCACGCUACAUUGCAGGAGAAGGGUGACAUGCAC [Ensora] (Eterna round: R96, puzzle: Same State NG 3) | 484 nM | 273 nM | 383 nM | 
7 | AAAAUAAAUGCGAAAAUUAACCGCAACUGACAUGAGGAUCACCCAUGUGCUUCAAGCUCAGGCAUCUCUUAUCGUCA [Maares] (Eterna round: R96, puzzle: Sensor for hsa-mir-208a) | 112 nM | 67.9 nM | 105 nM | 
8 | AAAAUACAUGAGGAUCACCCAUGUCUAAAGAACGGAGGAUAUAGGCGUGCAAAACACGCACUAGAAGGCUGGGUGC [Eserus] (puzzle: Same State 1) |  |  |  | apparent KD of MS2 coat protein (MS2 coat protein [1]; [4]): 144 nM; apparent KD of MS2 coat protein (MS2 coat protein [1]; [5]): 92.3 nM; apparent KD of MS2 coat protein (MS2 coat protein [1]; [6]): 220 nM
9 | AAAAUGGUAUGUUACAUGAGGAUCACCCAUGUACCGUAAUCUGAGGAUAUGGUGAUGUAGAAGAAUCAGAAGGCAGACAUUUAA [AK SSNG3-V2-24.2] (Eterna round: R96, puzzle: Same State NG 3) | 19.2 nM | 26.7 nM | 36.1 nM | 
10 | AAACACAUGAGGAUCACCCAUGUAGCGCCAUUAAAGCGCACAUAGGAUAUCCGGUCCUAAAGACCGGAGAAGGGUGAAAGAAAA [Zara] (Eterna round: R96, puzzle: Same State NG 3) | 54.8 nM | 76.2 nM | 121 nM | 
11 | AAACAUGAGCGAGGAUAUACGGAGGAUCACCCUGUAGAAGGCGCAUGUAAAACAACAUGAGGAUCACCCAUGUCAUGUACAUGA (Eterna round: R96, puzzle: Same State NG 1) | 24.8 nM | 23.4 nM | 33.6 nM | 
12 | AAACGCAGCAUAUCGCUGCGACAUGAGGAUCACCCAUGUACACAGGAUAUCGCGGCAUACCGCCACGAGAAGGGUGAUCAAGAC [Vebixeriso] (Eterna round: R96, puzzle: Same State NG 3) | 676 nM | 82.9 nM | 45.2 nM | 
13 | AAACGGUCGCUGCGGCGGCCACAUGAGGAUCACCCAUGUACAUAGGAUAUCGCCUAAAAUACUGGCGAGAAGGGUGAUUAAAGA [Ergegeti] (Eterna round: R96, puzzle: Same State NG 3) | 132 nM | 36.2 nM | 79.4 nM | 
14 | AAACUAGGCGGUCCAACAUGAGGAUCACCCAUGUAAAAUUCAUAGGAUAUGCCUAUAGAAACAAGGCAGAAGGGUGAGACCGCA [Atsoorle] (Eterna round: R96, puzzle: Same State NG 3) | 68.6 nM | 93.7 nM | 134 nM | 
15 | AAAGGAUGAUGUUACAUGAGGAUCACCCAUGUUGUGAUAACUAAGGAUAUGUGUUAAACCAGUUAAUAGAAGGUAGGAUCAUAA [AK SSNG3-V2-5] (Eterna round: R96, puzzle: Same State NG 3) | 182 nM | 77.1 nM | 112 nM | 
16 | AACAAUCUAUCUCAGGAUAUCAUGUCAAAGACAUGAGGAUCACCCAUGUACCAGGAAACUGGUUAUGAGAAGGGAGAUAGAUUGG [Mat - Same State 2 - Mod - D28] (puzzle: Same State 2) |  |  |  | apparent KD of MS2 coat protein (MS2 coat protein [1]; [4]): 161 nM; apparent KD of MS2 coat protein (MS2 coat protein [1]; [5]): 438 nM; apparent KD of MS2 coat protein (MS2 coat protein [1]; [6]): 197 nM
17 | AACAAUCUAUCUGAGGAUAUCAUGAAAUAAACAUGAGGAUCACCCAUGUGCAGGAAAACUGCAUAUGAGAAGGUAGAUAGAUUGA [salish99_ss2_r3_050] (puzzle: Same State 2) |  |  |  | apparent KD of MS2 coat protein (MS2 coat protein [1]; [4]): 176 nM; apparent KD of MS2 coat protein (MS2 coat protein [1]; [5]): 140 nM; apparent KD of MS2 coat protein (MS2 coat protein [1]; [6]): 218 nM
18 | AACAAUCUAUCUGAGGAUAUCAUGAAAUAAACAUGAGGAUCACCCAUGUGCAGGAAAACUGCAUAUUAGAAGGCAGAUAGAUUGA [salish99_ss2_r3_049] (puzzle: Same State 2) |  |  |  | apparent KD of MS2 coat protein (MS2 coat protein [1]; [4]): 163 nM; apparent KD of MS2 coat protein (MS2 coat protein [1]; [5]): 38.8 nM; apparent KD of MS2 coat protein (MS2 coat protein [1]; [6]): 151 nM
19 | AACAAUCUAUCUGAGGAUAUCAUGAAAUAAACAUGAGGAUCACCCAUGUGCAGGAAAACUUCAUAUGAGAAGGCAGAUAGAUUGA [salish99_ss2_r3_045] (puzzle: Same State 2) |  |  |  | apparent KD of MS2 coat protein (MS2 coat protein [1]; [4]): 17.5 nM; apparent KD of MS2 coat protein (MS2 coat protein [1]; [5]): 27.7 nM; apparent KD of MS2 coat protein (MS2 coat protein [1]; [6]): 26.4 nM
20 | AACAAUCUAUCUGAGGAUAUCAUGAGAAGAACAUGAGGAUCACCCAUGUGCAGGAAAACUGCAUAUGAGAAGGCAGAUAGAUUGG [Mat - Same State 2 - Mod - D18] (puzzle: Same State 2) |  |  |  | apparent KD of MS2 coat protein (MS2 coat protein [1]; [4]): 52.8 nM; apparent KD of MS2 coat protein (MS2 coat protein [1]; [5]): 621 nM; apparent KD of MS2 coat protein (MS2 coat protein [1]; [6]): 1950 nM
21 | AACGGCAGAUGAGGAUAUACUUGCCAUGCGAGCACGCUCGCUACAUGAGGAUCACCCAUGUAUGGGUAGAAGGCAUCAUGAUAC [Eternabot solution 39] (Eterna round: R96, puzzle: Same State NG 2) | 89.6 nM | 102 nM | 243 nM | 
22 | UUUAUUUAUUUAUUUAUUUAUUUAACAGAAGGAGCGUGGAUUAACACAGGUAGGUCGCUGACAUGAGGAUCACCCAUGUAUUAUU [SSAA #1] |  |  |  | apparent KD of MS2 coat protein (MS2 coat protein [2]; input ligand: arginine 13.2 mM): 106 nM; apparent KD of MS2 coat protein (MS2 coat protein [2]; input ligand: none): 28.4 nM; apparent KD of MS2 coat protein (MS2 coat protein [2]; [7]): 48 nM; apparent KD of MS2 coat protein (MS2 coat protein [2]; [8]): 41.6 nM; apparent KD of MS2 coat protein (MS2 coat protein [2]; [9]): 35.8 nM
23 | UUUCAGUGGACGGCCGCCACUGAAGUCGAUACAAUCAUGUAGAACAUGAGGAUCACCCAUGUAGUCAGGACCGGGUCCAAUGACU [Tryp B SS t3] |  |  |  | apparent KD of MS2 coat protein (MS2 coat protein [2]; input ligand: arginine 13.2 mM): 15.9 nM; apparent KD of MS2 coat protein (MS2 coat protein [2]; input ligand: none): 22.9 nM; apparent KD of MS2 coat protein (MS2 coat protein [2]; [7]): 21.3 nM; apparent KD of MS2 coat protein (MS2 coat protein [2]; [8]): 22.8 nM; apparent KD of MS2 coat protein (MS2 coat protein [2]; [9]): 20.5 nM
24 | UUUGCACAUGAGGAUCACCCAUGUACAGAUACCAGCCUCAUCUACGGCCCUUGGCAGCUGAGAUAAUGGUGACGUGAUGGGCUUU [Edaniser] |  |  |  | apparent KD of MS2 coat protein (MS2 coat protein [2]; input ligand: arginine 13.2 mM): 13.5 nM; apparent KD of MS2 coat protein (MS2 coat protein [2]; [7]): 17.2 nM; apparent KD of MS2 coat protein (MS2 coat protein [2]; [9]): 11.6 nM
25 | UUUUAACAUGAGGAUCACCCAUGUAAUGAUACCAGAGACGAAAGUCUCCCUUGGCAGCAUAAUCAUUACAUGAGAUGGAAACAUC [Theophylline A 7] |  |  |  | apparent KD of MS2 coat protein (MS2 coat protein [2]; input ligand: arginine 13.2 mM): 29.2 nM; apparent KD of MS2 coat protein (MS2 coat protein [2]; [7]): 48.5 nM; apparent KD of MS2 coat protein (MS2 coat protein [2]; [9]): 17.5 nM
26 | UUUUUUAACAUGGCGUAUCGGAAAACCGAUACCAGUACAGAAAUGUACCCUUGGCAGCGGCGUUUUACAUGAGGAUCACCCAUGU [Ex Theophylline A 3] |  |  |  | apparent KD of MS2 coat protein (MS2 coat protein [2]; input ligand: arginine 13.2 mM): 21.2 nM; apparent KD of MS2 coat protein (MS2 coat protein [2]; [7]): 65 nM; apparent KD of MS2 coat protein (MS2 coat protein [2]; [9]): 27.7 nM
